Measured values reported in patent publication US20030060605A1 (LA JOLLA INSTITUTE FOR ALLERGY AND IMMUNOLOGY, published 2003).
Positions count from the first letter of the chain named.

T1: LTβ (33 kDa) and LTα (23-25 kDa) complex from detergent extracts of PMA activated II-23.D7 cells (human, UniProt P01374 35-205; Q06643 1-244)
T1 construct: Native complex, in NP40 extract; also called LTα1β2 complex; surface LTα1β2
T1 sequence (looked up) 1: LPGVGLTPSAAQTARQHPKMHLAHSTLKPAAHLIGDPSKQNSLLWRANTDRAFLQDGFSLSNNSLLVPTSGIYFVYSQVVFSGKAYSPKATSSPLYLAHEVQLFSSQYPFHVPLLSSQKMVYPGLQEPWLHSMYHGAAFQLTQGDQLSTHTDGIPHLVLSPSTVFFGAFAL
T1 sequence (looked up) 2: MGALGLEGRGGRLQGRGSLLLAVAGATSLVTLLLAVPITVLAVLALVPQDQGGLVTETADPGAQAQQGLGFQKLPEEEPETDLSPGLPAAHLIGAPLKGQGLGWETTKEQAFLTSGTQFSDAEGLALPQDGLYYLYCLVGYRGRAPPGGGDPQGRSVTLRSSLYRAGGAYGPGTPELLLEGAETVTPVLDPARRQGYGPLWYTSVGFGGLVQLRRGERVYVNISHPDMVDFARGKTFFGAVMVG

T2: LTαTyr108Phe (UniProt P01374 35-205)
T2 construct: also called LTαY108F; LTα (Y108F)
T2 sequence (looked up): T1 sequence (looked up) 1 with Y108F

B1: Fas:Fc (Fc fusion, UniProt P25445 26-173, looked up)
chain: QVTDINSKGLELRKTVTTVETQNLEGLHHDGQFCHKPCPPGERKARDCTVNGDEPDCVPCQEGKEYTDKAHFSSKCRRCRLCDEGHGLEVEINCTRTQNTKCRCKPNFFCNSTVCEHCDPCTKCEHGIIKECTLTSNTKCKEEGSRSN
notes: not shown: Fc region of human IgG1
B2: HVEM:Fc fusion protein (extracellular region of HVEM, 1 to K184, fused to the Fc of human IgG1) (Fc fusion, UniProt Q92956 39-184, looked up)
chain: LPSCKEDEYPVGSECCPKCSPGYRVKEACGELTGTVCEPCPPGTYIAHLNGLSKCLQCQMCDPAMGLRASRNCSRTENAVCGCSPGHFCIVQDGDHCAACRAYATSSPGQRVQKGGTESQDTLCQNCPPGTFSPNGTLEECQHQTK
notes: range 1-184; Made in the baculovirus vector pVL1392; Residues 1-184 include the signal peptide; also called huHVEM:Fc; hu HVEM:Fc; not shown: Fc of human IgG1
B3: gD-1 (Δ290-299t), mutant of soluble HSV gD-1 (ligand)
chain: KYALVDASLKMADPNRFRGKDLPVLDQLTDPPGVRRVYHIQAGLPDPFQPPSLPITVYYAVLERACRSVLLNAPSEAPQIVRGASEDVRKQPYNLTIAWFRMGGNCAIPITVMEYTECSYNKSLGACPIRTQPRWNYYDSFSAVSEDNLGFLMHAPAFETAGTYLRLVKINDWTEITQFILEHRAKGSCKYALPLRIPPSACLSPQAYQQGVTVDSIGMLPRFIPENQRTVAVYSLKIAGWHGPKAPYTSTLLPPELSETPNATQPELAPEDPEDSALLEDPVGTVAPQQDAATPY
B4: soluble HSV gD-1 (glycoprotein D of HSV-1) (ligand)
chain: KYALVDASLKMADPNRFRGKDLPVLDQLTDPPGVRRVYHIQAGLPDPFQPPSLPITVYYAVLERACRSVLLNAPSEAPQIVRGASEDVRKQPYNLTIAWFRMGGNCAIPITVMEYTECSYNKSLGACPIRTQPRWNYYDSFSAVSEDNLGFLMHAPAFETAGTYLRLVKINDWTEITQFILEHRAKGSCKYALPLRIPPSACLSPQAYQQGVTVDSIGMLPRFIPENQRTVAVYSLKIAGWHGPKAPYTSTLLPPELSETPNATQPELAPEDPEDSALLEDPVGTVAPQIPPNWHIPSIQDAATPY
B5: recombinant soluble LTα1β2 (ligand)
chain 1: T1 sequence (looked up) 1
chain 2: QDQGGLVTETADPGAQAQQGLGFQKLPEEEPETDLSPGLPAAHLIGAPLKGQGLGWETTKEQAFLTSGTQFSDAEGLALPQDGLYYLYCLVGYRGRAPPGGGDPQGRSVTLRSSLYRAGGAYGPGTPELLLEGAETVTPVLDPARRQGYGPLWYTSVGFGGLVQLRRGERVYVNISHPDMVDFARGKTFFGAVMVG
B6: LTα homotrimer (ligand, UniProt P01374 35-205, looked up)
chain: T1 sequence (looked up) 1
notes: One entry for the recombinant protein and for the native LTα (23-25 kDa, and the 23 kDa precursor) of the human II-23.D7 cells; also called recombinant LTα; secreted LTα

Columns and labels:
[1] = biological target: LTβR on the surface of human cells (HT29, NHDF) (human) (UniProt P36941); experiment: cell-based or functional assay
[2] = biological target: mouse HVEM:Fc (extracellular region of mouse HVEM, Met1 to Ser205, fused to the Fc of human IgG1) (mouse; human) (UniProt Q80WM9); experiment: ELISA, receptor:Fc as capture, M2 anti-FLAG detection
[3] = biological target: mouse LTβR:Fc (residues 1 to Met221 of the extracellular domain of mouse LTβR) (mouse) (UniProt P50284); experiment: as above
Chain of mouse LTβR:Fc (residues 1 to Met221 of the extracellular domain of mouse LTβR) (mouse) (P50284 31-221): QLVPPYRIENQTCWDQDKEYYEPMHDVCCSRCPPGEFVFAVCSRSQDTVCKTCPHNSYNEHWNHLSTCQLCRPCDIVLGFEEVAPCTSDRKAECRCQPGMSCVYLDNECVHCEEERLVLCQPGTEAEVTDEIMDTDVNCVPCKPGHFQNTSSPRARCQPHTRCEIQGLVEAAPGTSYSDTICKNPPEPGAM

[4] = biological target: HVEM:Fc fusion protein (extracellular region of HVEM, 1 to K184, fused to the Fc of human IgG1) (human) (UniProt Q92956); experiment: SPR (BIAcore 1000), receptor:Fc amine-coupled to CM5, LIGHT as analyte 100-500 nM
human LTβR:Fc (human) [5] = biological target: human LTβR:Fc (human) (UniProt P36941); experiment: as above
human LTβR:Fc (human) [6] = biological target: human LTβR:Fc (human) (UniProt P36941); experiment: ELISA, receptor:Fc coated as capture (150 ng/well), FLAG-tagged ligand, M2 anti-FLAG and goat anti-mouse HRP, OD 415 [panel Human LTβR:Fc]
[7] = biological target: HVEM:Fc fusion protein (extracellular region of HVEM, 1 to K184, fused to the Fc of human IgG1) (human) (UniProt Q92956); experiment: SPR (BIAcore 1000), receptor:Fc amine-coupled to CM5, LIGHT mutant as analyte
human LTβR:Fc (human) [8] = biological target: human LTβR:Fc (human) (UniProt P36941); experiment: as above
[9] = biological target: mouse HVEM:Fc (extracellular region of mouse HVEM, Met1 to Ser205, fused to the Fc of human IgG1) (mouse; human) (UniProt Q80WM9); experiment: ELISA, receptor:Fc coated as capture (150 ng/well), FLAG-tagged ligand, M2 anti-FLAG and goat anti-mouse HRP, OD 415 [panel mouse HVEM:Fc]
[10] = biological target: HVEM:Fc fusion protein (extracellular region of HVEM, 1 to K184, fused to the Fc of human IgG1) (human) (UniProt Q92956); experiment: SPR (BIAcore 1000)
[11] = biological target: p30 (LIGHT), the 30 kDa cell surface HVEM ligand of activated II-23.D7 T hybridoma cells and human T cells (human) (UniProt O43557); experiment: competition flow cytometry: II-23.D7 cells activated with PMA and ionomycin, pre-incubated with the Fc protein, then HVEM:Fc-rabbit 2 µg/ml, goat anti-rabbit IgG-PE; competitor displaced: HVEM:rbFc [lower graph]
Chain of p30 (LIGHT), the 30 kDa cell surface HVEM ligand of activated II-23.D7 T hybridoma cells and human T cells (human) (O43557 whole entry, the tested form may be a part): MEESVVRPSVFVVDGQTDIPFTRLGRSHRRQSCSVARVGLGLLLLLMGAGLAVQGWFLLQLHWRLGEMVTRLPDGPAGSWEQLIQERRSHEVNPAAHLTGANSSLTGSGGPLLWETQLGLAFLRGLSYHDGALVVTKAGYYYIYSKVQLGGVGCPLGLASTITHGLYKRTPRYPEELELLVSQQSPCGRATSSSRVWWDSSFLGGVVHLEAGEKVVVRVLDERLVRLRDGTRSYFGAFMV

[12] = biological target: HVEM:Fc fusion protein (extracellular region of HVEM, 1 to K184, fused to the Fc of human IgG1) (human) (UniProt Q92956); experiment: ELISA, receptor:Fc coated as capture (150 ng/well), FLAG-tagged ligand, M2 anti-FLAG and goat anti-mouse HRP, OD 415 [panel human HVEM:Fc]
[13] = biological target: T3, p30 (LIGHT), the 30 kDa cell surface HVEM ligand of activated II-23.D7 T hybridoma cells and human T cells (human, UniProt O43557 1-240); experiment: competition flow cytometry: II-23.D7 cells activated with PMA and ionomycin, pre-incubated with the Fc protein, then HVEM:Fc-rabbit 2 µg/ml, goat anti-rabbit IgG-PE [lower graph]
T3 construct: whole, on cells; On the cell surface in flow cytometry; in NP40 detergent extracts in the precipitations
T3 sequence (O43557 whole entry): as the sequence (O43557 whole entry, the tested form may be a part) above

[14] = biological target: T3, p30 (LIGHT), the 30 kDa cell surface …; experiment: flow cytometry, saturation binding on activated II-23.D7 cells; whole activated (PMA + ionomycin) II-23.D7 cells; apparent half-maximal binding by flow cytometry
Protocol: II-23.D7 cells were activated for 4 hours at 37° C. with phorbol myristate acetate (PMA) (100 ng/ml), or PMA (100 ng/ml) and ionomycin (1 μg/ml). […] Stained cells were analyzed by flow cytometry (FACSCaliber, Becton-Dickenson). Receptor binding was determined by calculating the fluorescence intensity=(mean fluorescent channel) (% positive fluorescent events), where a positive event has a fluorescence value>98% of the value for normal IgG. Specific fluorescence intensity represents the fluorescence intensity after subtraction of the value for control IgG.

[15] = biological target: T1, LTβ (33 kDa) and LTα (23-25 kDa) …; experiment: flow cytometry, II-23.D7 cells activated with PMA alone, goat anti-human IgG-PE; target taken as the surface LTα1β2 of these cells [upper histogram]
LTαTyr108Phe = biological target: T2, LTαTyr108Phe; experiment: competition flow cytometry: HVEM:Fc pre-incubated with the ligand, then added to II-23.D7 cells activated with PMA and ionomycin, anti-huIgG-PE
[16] = biological target: B2; experiment: competition flow cytometry: HVEM:Fc 2 µg/ml pre-incubated with the gD-1 protein 30 min at 4 C, then added to II-23.D7 cells activated with PMA and ionomycin (p30 on the cells) [lower graph]
[17] = biological target: LTβR on the surface of human cells (HT29, NHDF) (human, UniProt P36941 31-435); experiment: cell-based or functional assay
[18] = biological target: B2; experiment: competition flow cytometry: HVEM:Fc pre-incubated with the ligand, then added to II-23.D7 cells activated with PMA and ionomycin (p30 on the cells), anti-huIgG-PE [lower graph]
[19] = biological target: B2; experiment: competition flow cytometry: HVEM:Fc pre-incubated with the ligand 30 min at 4 C, then added to II-23.D7 cells activated with PMA and ionomycin (p30 on the cells), anti-huIgG-PE [lower graph]

LIGHTt66-FLAG, recombinant soluble homotrimeric LIGHT lacking the N-terminal 66 amino acids (ligand)
IC50 for inhibition of pp28 expression (HCMV infected NHDF, western blot) [1]: 0.4 nM
concentration that completely inhibits the cytopathic effect of HCMV [1]: 100 pM
dose for 50% cytotoxicity to HT29 cells (MTT, with IFNγ) [1]: 10 to 100 pM
up-regulation of ICAM expression by NHDF cells (fold induction, flow cytometry) [1]: 4 fold
fold lower affinity (against the human receptors) [2]: 10 fold
fold lower affinity (against the human receptors) [3]: 10 fold
Kd [4]: 3.9 nM
koff [4]: 4.8e-05 s⁻¹
kon [4]: 12000 M⁻¹ s⁻¹
Kd (human LTβR:Fc (human) [5]): 4.5 nM
koff (human LTβR:Fc (human) [5]): 0.00012 s⁻¹
kon (human LTβR:Fc (human) [5]): 27000 M⁻¹ s⁻¹
EC50 (read off the curve) (human LTβR:Fc (human) [6]): 0.3 nM

LIGHTt66-FLAG mutant Q117T (ligand)
50% cell death of HT29 cells (MTT, 72 h, with IFNγ) [1]: 10 µM
Kd [7]: 0.3 nM
kon [7]: 20000 M⁻¹ s⁻¹
Kd (human LTβR:Fc (human) [8]): 1.5 nM
koff (human LTβR:Fc (human) [8]): 4.5e-05 s⁻¹
EC50 (read off the curve) [9]: 0.9 nM

LIGHTt66-FLAG mutant G119E (ligand)
fold lower affinity than LIGHT t66 [10]: 30 fold
up-regulation of ICAM expression by NHDF cells (fold induction, flow cytometry) [1]: < 1.5 fold
Kd [7]: 114 nM
koff [7]: 0.002 s⁻¹
kon [7]: 18000 M⁻¹ s⁻¹

LTβR:Fc (as printed in Examples 1 to 4; human or mouse not said) (Fc fusion)
IC50 (read off the curve) [11]: 10 µg/mL

LIGHTt66-FLAG mutant Y173F (ligand)
Kd [10]: 180 nM
fold lower affinity than LIGHT t66 [10]: > 40 fold
50% cell death of HT29 cells (MTT, 72 h, with IFNγ) [1]: 0.001 µM
up-regulation of ICAM expression by NHDF cells (fold induction, flow cytometry) [1]: 2.5 fold
Kd [7]: 173 nM
koff [7]: 0.0033 s⁻¹
kon [7]: 19000 M⁻¹ s⁻¹
Kd (human LTβR:Fc (human) [8]): 31 nM
koff (human LTβR:Fc (human) [8]): 0.0011 s⁻¹
kon (human LTβR:Fc (human) [8]): 37000 M⁻¹ s⁻¹

LIGHTt66-FLAG mutant L120Q (ligand)
50% cell death of HT29 cells (MTT, 72 h, with IFNγ) [1]: 10 µM
EC50 (read off the curve) [12]: 0.08 nM

B1
binding result [13]: no binding

B2
EC50 [14]: 20 nM
binding result [15]: no binding
binding result (LTαTyr108Phe): no binding

B3
IC50 (read off the curve) [16]: ~6 µg/mL

B4
IC50 (read off the curve) [16]: ~20 µg/mL

B5
IC50 for inhibition of pp28 expression (HCMV infected NHDF, western blot) [17]: 1 nM

B6
IC50 (read off the curve) [18]: ~50 nM
IC50 (read off the curve) [19]: ~30 nM
